Experimental data: patent US20120263732A1, “CD40 ANTIBODY FORMULATION AND METHODS” (PFIZER INC., priority 2003, published 2012)

Key:
[1] = Multiple-dose IV pharmacokinetics; type: in vivo, cynomolgus monkeys
Experimental: In a multiple-dose study, 21.4.1 was administered intravenously to cynomolgus monkeys (2/sex/dose) at doses of 0.3, 1.0, and 10 mg/kg on Days 1, 3, 5, 7, and 9 for 5 total doses. Blood was collected on Days 1 and 9 before dosing and 0.5, 6, and 24 hours after dosing and before dosing and 0.5 hour after dosing on Day 5 to measure serum drug concentrations. Systemic exposure to 21.4.1, as assessed by mean Cmax and mean AUG(0-24), increased with increasing dose from 0.3 to 10 mg/kg on both Day 1 and Day 9 (Table 2). Similar exposures (mean Cmax and mean AUC) were observed on Days 1 and 9 in the 0.3 and 1 mg/kg dose groups. […] Gender-related differences in exposure were not observed.

[2] = tested on: CD40(−) colon carcinoma, Lovo; experiment: CD40(−) Lovo colon carcinoma growth in SCID-beige mice; type: in vivo, human tumor in SCID-beige mice; conditions: in the absence of immune cells
Experimental: The effects of a CD40 antibody (21.4.1) on the growth of CD40(−) tumors (e.g., erythroleukemia and colon carcinoma) were examined. In particular, K562 tumors were chosen to assess the efficacy of 21.4.1 against a CD40(−) low immunogenic (class I and II negative) tumor.
SCID-beige mice were injected SC with the CD40(−) erythroleukemic tumor, K562 (ATCC CCL-243) alone or in the presence of human peripheral blood T cells and DCs. Animals received a single IP injection of 21.4.1 either at the time of tumor injection or 5 days later using various dose levels.
The amount of 21.4.1 to cause a 50% inhibition of tumor growth was 0.005 mg/kg corresponding to a Cmax serum concentration of 0.05 μg/mL. […] The results were identical when 21.4.1 was administered on Day 0 or Day +5 relative to tumor challenge. The growth of these CD40(−) tumors was not inhibited by 21.4.1 in the absence of immune cells.

[3] = tested on: cynomolgus B-cells; experiment: Pharmacodynamics: B-cell surface marker upregulation after IV dosing (flow cytometry); type: in vivo, cynomolgus monkeys
Experimental: A CD40 antibody (21.4.1) was administered intravenously at various doses (1 mg/kg n=4, 3 mg/kg n=4, 5 mg/kg n=2 and 10 mg/kg n=2) to cynomolgus monkeys. Heparinized blood was drawn from the monkeys at various time points pre- and postdose. The blood was aliquoted and stained. Data were acquired using a Becton Dickinson FACSCalibur and analyzed with CellQuest software. Results were calculated as fold increases in median fluorescence intensity as compared to pre-dose values.

[4] = tested on: lymph node cells obtained from cancer patients; experiment: IFNγ producing cells by ELISPOT in lymph node cell cultures stimulated with tumor antigen; type: cell-based, human; conditions: antibody 1 μg/mL (6.7 nM); ELISPOT following restimulation
Excerpt: (§1) Effects of a human anti-CD40 antibody (21.4.1) on lymph node cells obtained from cancer patients stimulated with autologous tumor cells was examined.
(§2) Lymph node cells and tumors were collected from patients with renal cell carcinoma, non-small cell lung cancer, transitional cell carcinoma of the bladder, colon cancer, prostate cancer, and head and neck cancer. The lymph node cells were placed into culture together with irradiated collagenase treated tumors (recovered from the same patient) in the presence or absence of 21.4.1 (1 μg/mL; 6.7 nM). Proliferation was assessed using ^3H-thymidine 96 hours later. The number of INFγ producing cells was assessed by ELISPOT, following restimulation.

[5] = tested on: human breast tumor, BT 474; experiment: BT 474 breast tumor growth with human T cells and DC in SCID-beige mice; type: in vivo
Excerpt: SCID-beige mice were challenged with the human breast tumor, BT 474 (ATCC HTB-20), SC, together with human peripheral blood T cells and DC. Animals received a single dose of 21.4.1 (IP) at the time of tumor injection.

[6] = tested on: lymph node cells obtained from cancer patients; experiment: Proliferation of cancer patients' lymph node cells stimulated with autologous tumor cells (3H-thymidine); type: cell-based, human; conditions: antibody 1 μg/mL (6.7 nM); 3H-thymidine 96 hours later
Excerpt: as §1, §2

[7] = tested on: CD40(+) Raji B cell lymphoma; experiment: CD40(+) Raji B cell lymphoma growth in SCID-beige mice; type: in vivo, human tumor in SCID-beige mice
Experimental: SCID-beige mice were injected subcutaneously with the CD40(+) Raji B cell lymphoma (ATCC CCL-86) (SC) followed by a single dose of 21.4.1 (IP) at the time of tumor injection. Some animals were also injected with human T cells and DC. Tumor growth was assessed on Day 21.

[8] = 0.3 mg/kg IV every other day, Day 1
[9] = 0.3 mg/kg IV every other day, Day 9
[10] = 1.0 mg/kg IV every other day, Day 1
[11] = 1.0 mg/kg IV every other day, Day 9
[12] = 10 mg/kg IV every other day, Day 1
[13] = 10 mg/kg IV every other day, Day 9

## 21.4.1: human agonist anti-CD40 antibody; amino acid sequences SEQ ID NOs:5-8; hybridoma deposit PTA-3605
[1]; [8]
  AUC(0-24): 47.7 ± 15.4 µg·h/mL
  Cmax: 4670 ± 1710 ng/mL
  Tmax: 1.9 ± 2.8 h
[1]; [9]
  AUC(0-24): 55.6 ± 47.1 µg·h/mL
  Cmax: 7400 ± 2900 ng/mL
  Tmax: 0.5 ± 0.0 h
[1]; [10]
  AUC(0-24): 387 ± 59 µg·h/mL
  Cmax: 26700 ± 5100 ng/mL
  Tmax: 0.5 ± 0.0 h
[1]; [11]
  AUC(0-24): 219 ± 151 µg·h/mL
  Cmax: 12300 ± 9100 ng/mL
  Tmax: 1.9 ± 2.8 h
[1]; [12]
  AUC(0-24): 4130 ± 600 µg·h/mL
  Cmax: 226000 ± 29000 ng/mL
  Tmax: 1.9 ± 2.8 h
[1]; [13]
  AUC(0-24): 11400 ± 2100 µg·h/mL
  Cmax: 577000 ± 163000 ng/mL
  Tmax: 3.3 ± 3.2 h
[1]; 10 mg/kg dose group
  increase of mean AUG(0-24) from Day 1 to Day 9: 2.8 fold
  increase of mean Cmax from Day 1 to Day 9: 2.6 fold
[2]
  growth of Lovo tumor: not inhibited
[3]; 24 hours after dosing, 3 mg/kg and 10 mg/kg IV
  CD23 expression on B-cells, increase vs pre-dose: ≥ 20 fold
[3]; IV, MHC Class II and CD23 on CD20+ cells
  dose producing a saturating pharmacodynamic response in cynomolgus B-cells: 1 mg/kg
[3]; after IV dosing
  CD71 (transferrin receptor) level: moderate upregulation
  CD80 expression: did not change significantly
  CD86 costimulatory molecule level: moderate upregulation
[3]; while 21.4.1 levels remained above 1 μg/ml
  upregulation of both surface markers (MHC Class II, CD23) persisted, increase: ≥ 2 fold
[4]
  number of IFNγ+ positive T cells: enhanced
[5]; BT 474 with human T cells and DC, single IP dose at tumor injection, Day 53
  amount necessary to cause a 50% reduction in tumor growth: 0.005 mg/kg
[5]; in the presence of immune cells, single injection
  growth of BT 474 cells: prevented the growth
[6]
  proliferation of lymph node cells in response to tumor antigen, enhancement: 3-4 fold
[7]; Raji
  anti-tumor activity against CD40(+) tumors when immune cells were present: enhanced
[7]; Raji co-injected with immune cells (human T cells and DC), single IP dose, Day 21
  amount necessary to cause a 50% inhibition of tumor growth: 0.001 mg/kg
[7]; Raji in the absence of immune cells, single IP dose, Day 21
  amount to cause a 50% inhibition of tumor growth (IC50): 0.02 mg/kg
[7]; Raji, with vs without immune cells
  decrease of the 50% inhibitory amount when immune cells co-injected: 20 fold
